This is an account of results in patent US5847088A, “Antibodies specific for platelet-activating factor acetylhydrolase” (ICOS Corporation, priority 1995, dated 1998).

Numbering of substitutions follows the chain as printed. Names may count otherwise.

B1: V279F: PAF-AH with phenylalanine for valine at position 279, mutation of PAF-AH deficient patients (protein)
chain: MVPPKLHVLFCLCGCLAVVYPFDWQYINPVAHMKSSAWVNKIQVLMAAASFGQTKIPRGNGPYSVGCTDLMFDHTNKGTFLRLYYPSQDNDRLDTLWIPNKEYFWGLSKFLGTHWLMGNILRLLFGSMTTPANWNSPLRPGEKYPLVVFSHGLGAFRTLYSAIGIDLASHGFIVAAVEHRDRSASATYYFKDQSAAEIGDKSWLYLRTLKQEEETHIRNEQVRQRAKECSQALSLILDIDHGKPVKNALDLKFDMEQLKDSIDREKIAVIGHSFGGATFIQTLSEDQRFRCGIALDAWMFPLGDEVYSRIPQPLFFINSEYFQYPANIIKMKKCYSPDKERKMITIRGSVHQNFADFTFATGKIIGHMLKLKGDIDSNVAIDLSNKASLAFLQKHLGLHKDFDQWDCLIEGDDENLIPGTNINTTNQHIMLQNSSGIEKYN
B2: S108A: PAF-AH analog with single amino acid substitution, expressed in E. coli (protein)
chain: B1 chain with S108A, F279V
B3: C334S: PAF-AH analog, cysteine mutated to serine (protein)
chain: B1 chain with F279V, C334S
B4: D286N: PAF-AH analog with single amino acid substitution (protein)
chain: B1 chain with F279V, D286N
B5: S273A: PAF-AH analog, Ser273 changed to alanine (protein)
chain: B1 chain with S273A, F279V
B6: C229S: PAF-AH analog, Cys229 mutated to serine (protein)
chain: B1 chain with C229S, F279V
B7: C291S: PAF-AH analog, Cys291 mutated to serine (protein)
chain: B1 chain with F279V, C291S
B8: H351A: PAF-AH analog, His351 changed to alanine (protein)
chain: B1 chain with F279V, H351A
B9: D338A: PAF-AH analog with single amino acid substitution (protein)
chain: B1 chain with F279V, D338A
B10: C67S: PAF-AH analog, cysteine mutated to serine (protein)
chain: B1 chain with C67S, F279V
B11: D286A: PAF-AH analog with single amino acid substitution (protein)
chain: B1 chain with F279V, D286A
B12: D296A: PAF-AH analog, Asp296 changed to alanine (protein)
chain: B1 chain with F279V, D296A
B13: C407S: PAF-AH analog, cysteine mutated to serine (protein)
chain: B1 chain with F279V, C407S
B14: D304A: PAF-AH analog with single amino acid substitution (protein)
chain: B1 chain with F279V, D304A
B15: Wild type: wild type human PAF-AH expressed in E. coli, control of mutation series (protein, UniProt Q13093 22-441, looked up)
Platelet-activating factor …: FDWQYINPVAHMKSSAWVNKIQVLMAAASFGQTKIPRGNGPYSVGCTDLMFDHTNKGTFLRLYYPSQDNDRLDTLWIPNKEYFWGLSKFLGTHWLMGNILRLLFGSMTTPANWNSPLRPGEKYPLVVFSHGLGAFRTLYSAIGIDLASHGFIVAAVEHRDRSASATYYFKDQSAAEIGDKSWLYLRTLKQEEETHIRNEQVRQRAKECSQALSLILDIDHGKPVKNALDLKFDMEQLKDSIDREKIAVIGHSFGGATVIQTLSEDQRFRCGIALDAWMFPLGDEVYSRIPQPLFFINSEYFQYPANIIKMKKCYSPDKERKMITIRGSVHQNFADFTFATGKIIGHMLKLKGDIDSNVAIDLSNKASLAFLQKHLGLHKDFDQWDCLIEGDDENLIPGTNINTTNQHIMLQNSSGIEKYN

The first assay is described as follows: PAF-AH activity of PAF-AH products expressed in E. coli (hydrolysis of 3H-acetate from [acetyl-3H] PAF). The format is biochemical. The conditions noted are these: E. coli; control construct lacking the mutation fully active.
Turning to B1, the “PAF-AH activity of mutant expression construct” value is recorded as “no PAF-AH activity”.

Staying with this assay, now noted: amino acid substitution products expressed in E. coli.
In the case of B2, the PAF-AH activity result is on record as “++++ (wild type PAF-AH activity of about 40-60 U/ml/OD600)”.

On to B3, for which the PAF-AH activity entry is “++++ (wild type PAF-AH activity of about 40-60 U/ml/OD600)”. On the same count and under the same terms, the same measure for B4: “++ (about 10-20 U/ml/OD600 activity)”; for B5: “- (<1 U/ml/OD600 activity)”.

As to B6, the PAF-AH activity result is given as “+ (1-10 U/ml/OD600 activity)”. Same read-out and setting: the same measure for B7: “+ (1-10 U/ml/OD600 activity)”; for B8: “- (<1 U/ml/OD600 activity)”; for B9: “++++ (wild type PAF-AH activity of about 40-60 U/ml/OD600)”. The same measure, in the same setting: under B10 stands “+++ (about 20-40 U/ml/OD600 activity)”; under B11, “- (<1 U/ml/OD600 activity)”; under B12, “- (<1 U/ml/OD600 activity)”. Turning to B13, the PAF-AH activity result is on record as “+++ (about 20-40 U/ml/OD600 activity)”.

Take B14: the PAF-AH activity result is listed as “++++ (wild type PAF-AH activity of about 40-60 U/ml/OD600)”. Same read-out and setting: under B15 stands “++++ (wild type PAF-AH activity of about 40-60 U/ml/OD600)”.
